Test results as given in paper PMC3167627.

Molecular target: Mcm2WT-7 (Mcm2-7) (Saccharomyces cerevisiae, UniProt P29469;P24279;P30665;P29496;P53091;P38132 1-868;1-971;1-933;1-775;1-1017;1-845)
Experiment: EMSA

B1: poly-dT60 (ssDNA)
DNA: TTTTTTTTTTTTTTTTTTTTTTTTTTTTTTTTTTTTTTTTTTTTTTTTTTTTTTTTTTTT
binding result: binds
